This is an account of results in the DeepSol protein solubility set.

The series can be described thus: soluble on expression in E. coli; label from the status in PepcDB or PDB records.
Take “STRFPGVAIYLVEPRMGRSRRAFLTGLARSKGFRVLDACSSEATHVVMEETSAEEAVSWQERRMAAAPPGCTPPALLDISWLTESLGAGQPVPVECRHRLEVAGPRKGPLSPAWMPAYAC”: the “soluble on expression in E. coli” value was “soluble”.

For the sequence “MQELKVPSVGESIVEVEIGAWLKGEGESFAQDEPLVELITDKATLELPAPFAGTLKQILKRTGETARVGEAIALLEEGRAEAAPKAQAPAEAPKEPSPEPLAMPAAERLMQEKGVSPAEVQGTGLGGRILKEDVMRHLEERAPAKPQEAPPPPPPSRPAPPPSTPPQPPADKPWRVSEAVPMTPLRRRIAERLLMVRQTTAMLTTFNEADMSAVIALRKEFGEAFQKKYGVKLGFMSFFVKAVVQALKEIPELNAEIRDNHIVYHRYYDIGIAVGGGEGLVVPVIRDADRLSFAEIEQKIADFAERARTKKLKPEELMGGTFTITNGGIYGSLNSTPLLNPPQVGILGMHAIQERPVVRDGQVVIRPMMYLALSYDHRIVDGREAVTFLRRVKELIENPARLLLEV”, the “soluble on expression in E. coli” value was “soluble”.

As for “MELPFSQACENNKDPILEVLKTAFSDCTRVLEVGSGTGQHAVYFASQLPNIHWQASDQKEYLPGVTARIKQEGVTNQPLPVEFDVFADAPGGTFNALFTANTCHIMPKEGVERLFEHLEGDLSSVERLCIYGPFNDNGHFTSDSNRGFHQSLQSRNSDMGIRDWQWITELANQQGFELKKIHPLPANNQLLEFQRLEHHHHHH”, the “soluble on expression in E. coli” value is recorded as “soluble”.

Regarding “MSLQEVKKTYFVSKPGTLISMMTEEEANQVTHLTLTGKINAVDFRHLRDEFKNLQVLDIANASISMYSGKEGTYPDKFYIYMPNFVPAYAFCKMENGTAKGKSTLKKIILSEKIKNIEDAAFMGCENLNICQIKKKTPPNLLPEALADSITAIFVPLGASDEYRLKNRWDNFAFIEGEPLEAKIEVGALSTLENEIQKAGLQPKEINFLTIEGKLDAADFKLIRDYMPNLVAVDIEKTNATAIPDFTFSQKKYLLRIRLPHGLKSIGQRAFSNCGRLCGTVELPESITAIEYGAFMGCDRLRYVVAHGDKITTIGDNLFGEGKNKLIYKREGHHHHHH”, the “soluble on expression in E. coli” value was “soluble”.

Take “MGSNTLLCAKWLRGLRPRSRVNPLLNRALAAVGAGSPAKGRQAAPLAPIPRSSPVKALDQLTFDNRFARLGDAFSTQVLPEPIADPRLVVASESAMALLDLDPAQAELPVFAELFSGHKLWEEADPRAMVYSGHQFGSYNPRLGDGRGLLLAEVLNDAGEHWDLHLKGAGQTPYSRMGDGRAVLRSSIREFLASEALHALGIATSRALCVIGSSTPVWRETRESAAMLTRLAQSHVRFGHFEYFYYTKQPEQQRVLIDHVLEQHYPECREAEQPYLAMFRTIVERNAELIARWQAYGFCHGVMNTDNMSILGITFDFGPYAFLDDFDANFICNHSDDRGRYSYANQVPIAHWNLSALAQALTTVIEVEPLKEALGLFLPLYQAHYLDLMRRRLGLTTAEDDDMVLVERLLQCMQRGGVDYSLFFRKLGEQPVAEALKVARDDFIDLAGFDAWGADYLARCGREPGNAEGRRERMHAVNPLYVLRNYLAQKAIEAAEAGDYSEVRRLHQVLARPFEEQPGMQAYAERPPEWGKHLEISCSSLEHHHHHH”: the “soluble on expression in E. coli” value is listed as “soluble”.

Consider “VQSMSDESEKNSASPDAMRVGTRVLVRRQPEAATGVIVEDYAELTDTAGRGHDWAPVHRWAVALDDGRLVFADTEDLTVDIGTVDSE”, for which the “soluble on expression in E. coli” value is “not soluble”.

For the sequence “MANKLRNYTINFGPQHPAAHGVLRMILELDGEQIVRADPHIGLLHRGTEKLAETKTYLQALPYMDRLDYVSMMVNEQAYCLAVEKLVGIDVPIRAQYIRVMFAEVTRILNHLMGIGSHAFDIGAMTAILYAFRDREELMDLYEAVSGARMHAAYFRPGGVYRDLPDFMPKYEGSKFRNAKVLKQLNESREGTMLDFIDAFCERFPKNIDTLETLLTDNRIWKQRTVGIGVVSPERAMQKGFTGVMLRGSGVEWDVRKTQPYEVYDKMDFDIPVGVNGDCYDRYLCRMEEMRQSVRIIKQCSEWLRVNPGPVITTNHKFAPPKRTEMKTGMEDLIHHFKLFTEGMHVPEGETYTAVEHPKGEFGVYIISDGANKPYRLKIRAPGFAHLQGMDEMAKGHMLADVVAIIGTQDIVFGEVDR”, the “soluble on expression in E. coli” value is reported as “not soluble”.

As for “MVSFKAGINLGGWISQYQVFSKEHFDTFITEKDIETIAEAGFDHVRLPFDYPIIESDDNVGEYKEDGLSYIDRCLEWCKKYNLGLVLDMHHAPGYRFQDFKTSTLFEDPNQQKRFVDIWRFLAKRYINEREHIAFELLNEVVEPDSTRWNKLMLECIKAIREIDSTMWLYIGGNNYNSPDELKNLADIDDDYIVYNFHFYNPFFFTHQKAHWSESAMAYNRTVKYPGQYEGIEEFVKNNPKYSFMMELNNLKLNKELLRKDLKPAIEFREKKKCKLYCGEFGVIAIADLESRIKWHEDYISLLEEYDIGGAVWNYKKMDFEIYNEDRKPVSQELVNILARRKT”, the “soluble on expression in E. coli” value is listed as “soluble”.

For “MSLKTLTRFLIIPMLSVAFFSCSESHFLKDVAYRNQVTQDFEMKKQQLPNGELFAVFNEKLTIPEQEALMFLYAYMPTGDVTDYTGDYYLENVRLSDQARREMPWGKEIPDDVFRHFVLPIRVNNENLDDSRRVFYNELKDRVKNLSLHDAVLEVNHWCHEKVIYTPSDARTSAPLASVKTAYGRCGEESTFTVAALRSVGIPARQVYTPRWAHTDDNHAWVEAWVDGKWYFFGACEPEPVLNLGWFNAPASRGMLMHTKVFGRYTGEGHHHHHH”, the “soluble on expression in E. coli” value is “not soluble”.

For the sequence “MTENEDLVAGLLLAAGGGRRLGGRPKALLEHRGRPLVEHVAGVLRAAGSTRVYVVLGAQAAAVRERAVLPGCILVDNPDWELGMGTSLRAGLEAMHGTGVRAALVSLVDQPGIGPAAVARVRAAYTSPSTLASAAYDGVRGHPVLFGAAHWAAVAASATGDRGARAYLKAHESAITLVECGDVAEAYDIDTVADLVHLELEHHHHHH”, the “soluble on expression in E. coli” value is on record as “not soluble”.

On to “MSLINVQNVSKTFILHQQNGVRLPVLNRASLTVNAGECVVLHGHSGSGKSTLLRSLYANYLPDEGQIQIKHGDEWVDLVTAPARKVVEIRKTTVGWVSQFLRVIPRISALEVVMQPLLDTGVPREACAAKAARLLTRLNVPERLWHLAPSTFSGGEQQRVNIARGFIVDYPILLLDEPTASLDAKNSAAVVELIREAKTRGAAIVGIFHDEAVRNDVADRLHPMGASEGHHHHHH”, for which the “soluble on expression in E. coli” value is listed as “not soluble”.

As to “MTYRIKKWQKLSTITLLMAGVITLNGGEFRSVDKHQIAVADTNVQTPDYEKLRNTWLDVNYGYDKYDENNPDMKKKFDATEKEATNLLKEMKTESGRKYLWSGAETLETNSSHMTRTYRNIEKIAEAMRNPKTTLNTDENKKKVKDALEWLHKNAYGKEPDKKVKELSENFTKTTGKNTNLNWWDYEIGTPKSLTNTLILLNDQFSNEEKKKFTAPIKTFAPDSDKILSSVGKAELAKGGNLVDISKVKLLECIIEEDKDMMKKSIDSFNKVFTYVQDSATGKERNGFYKDGSYIDHQDVPYTGAYGVVLLEGISQMMPMIKETPFNDKTQNDTTLKSWIDDGFMPLIYKGEMMDLSRGRAISRENETSHSASATVMKSLLRLSDAMDDSTKAKYKKIVKSSVESDSSYKQNDYLNSYSDIDKMKSLMTDNSISKNGLTQQLKIYNDMDRVTYHNKDLDFAFGLSMTSKNVARYESINGENLKGWHTGAGMSYLYNSDVKHYHDNFWVTADMKRLSGTTTLDNEILKDTDDKKSSKTFVGGTKVDDQHASIGMDFENQDKTLTAKKSYFILNDKIVFLGTGIKSTDSSKNPVTTIENRKANGYTLYTDDKQTTNSDNQENNSVFLESTDTKKNIGYHFLNKPKITVKKESHTGKWKEINKSQKDTQKTDEYYEVTQKHSNSDNKYGYVLYPGLSKDVFKTKKDEVTVVKQEDDFHVVKDNESVWAGVNYSNSTQTFDINNTKVEVKAKGMFILKKKDDNTYECSFYNPESTNSASDIESKISMTGYSITNKNTSTSNESGVHFELTK”, the “soluble on expression in E. coli” value is given as “not soluble”.
